In the Human Domainome abundance scans (Beltran et al. 2025):
± gives the uncertainty stated by the source.

B1: WW domain-binding protein 4, residues 8 to 43; numbered along this chain, O75554 (parent)
chain: QPKKFCDYCKCWIADNRPSVEFHERGKNHKENVAKR

Variants of: B1
Experiment: abundance fitness (aPCA) (normalised: wild type 0, dead -1); higher = more abundant; growth selection in yeast, the domain comes from the species named
Settings: Homo sapiens
QPKKFCDYCKCWIADNRPSVEFHERGKNHKENVLKR showed an abundance fitness of -0.201 ± 0.096.
QPKKFCDYCKCWIADNRPSVEFHERGKNHKENVEKR showed an abundance fitness of -0.001 ± 0.13.
Work on QPKKFCDYCKCWIADNRPSVEFHERGKNHKENVQKR yielded an abundance fitness of -0.289 ± 0.14.
With QPKKFCDYCKCWIADNRPSVEFHERGKNHKENVCKR the abundance fitness was -0.135 ± 0.1.
Work on QPKKFCDYCKCWIADNRPSVEFHERGKNHKENVGKR yielded an abundance fitness of -0.036 ± 0.061.
QPKKFCDYCKCWIADNRPSVEFHERGKNHKENVIKR gave an abundance fitness of 0.089 ± 0.33.
In the case of QPKKFCDYCKCWIADNRPSVEFHERGKNHKENVPKR, the abundance fitness is reported as -0.309 ± 0.26.
QPKKFCDYCKCWIADNRPSVEFHERGKNHKENVKKR showed an abundance fitness of -0.098 ± 0.13.
Variant QPKKFCDYCKCWIADNRPSVEFHERGKNHKENVRKR has an abundance fitness of -0.11 ± 0.061.
With QPKKFCDYCKCWIADNRPSVEFHERGKNHKENVVKR the abundance fitness was -0.088 ± 0.078.
Variant QPKKFCDYCKCWIADNRPSVEFHERGKNHKENVWKR has an abundance fitness of -0.232 ± 0.12.
Variant QPKKFCDYCKCWIADNRPSVEFHERGKNHKENVSKR has an abundance fitness of 0.055 ± 0.14.
QPKKFCDYCKCWIADNRPSVEFHERGKNHKENVDKR showed an abundance fitness of 0.351 ± 0.13.
Work on QPKKFCDYCKCWIADNRPSVEFHERGKNHKENVFKR yielded an abundance fitness of -0.385 ± 0.13.
QPKKFCDYCKCWIADNRPSVEFHERGKNHKENVTKR showed an abundance fitness of 0.022 ± 0.09.
With QPKKFCDYCKCWIADNRPSVEFHERGKNHKENVHKR the abundance fitness was -0.001 ± 0.12.
Variant QPKKFCDYCKCWIADNRPSVEFHERGKNHKENVAKE has an abundance fitness of 0.245 ± 0.094.
QPKKFCDYCKCWIADNRPSVEFHERGKNHKENVAKA gave an abundance fitness of 0.023 ± 0.11.
Variant QPKKFCDYCKCWIADNRPSVEFHERGKNHKENVAKC has an abundance fitness of 0.005 ± 0.14.
Work on QPKKFCDYCKCWIADNRPSVEFHERGKNHKENVAKQ yielded an abundance fitness of -0.304 ± 0.2.
QPKKFCDYCKCWIADNRPSVEFHERGKNHKENVAKP gave an abundance fitness of 0.211 ± 0.15.
Variant QPKKFCDYCKCWIADNRPSVEFHERGKNHKENVAKS has an abundance fitness of -0.032 ± 0.097.
With QPKKFCDYCKCWIADNRPSVEFHERGKNHKENVAKK the abundance fitness was 0.058 ± 0.12.
In the case of QPKKFCDYCKCWIADNRPSVEFHERGKNHKENVAKG, the abundance fitness is reported as 0.16 ± 0.065.
For QPKKFCDYCKCWIADNRPSVEFHERGKNHKENVAKM, the abundance fitness was -0.267 ± 0.2.
In the case of QPKKFCDYCKCWIADNRPSVEFHERGKNHKENVAKW, the abundance fitness is reported as -0.29 ± 0.12.
With QPKKFCDYCKCWIADNRPSVEFHERGKNHKENVAQR the abundance fitness was -0.093 ± 0.1.
For QPKKFCDYCKCWIADNRPSVEFHERGKNHKENVAPR, the abundance fitness was -0.002 ± 0.095.
With QPKKFCDYCKCWIADNRPSVEFHERGKNHKENVAMR the abundance fitness was -0.092 ± 0.09.
QPKKFCDYCKCWIADNRPSVEFHERGKNHKENVAWR showed an abundance fitness of 0.017 ± 0.12.
In the case of QPKKFCDYCKCWIADNRPSVEFHERGKNHKENVAER, the abundance fitness is reported as -0.099 ± 0.095.
QPKKFCDYCKCWIADNRPSVEFHERGKNHKENVANR showed an abundance fitness of -0.085 ± 0.14.
QPKKFCDYCKCWIADNRPSVEFHERGKNHKENVACR gave an abundance fitness of -0.951 ± 0.32.
With QPKKFCDYCKCWIADNRPSVEFHERGKNHKENVAVR the abundance fitness was -0.129 ± 0.078.
For QPKKFCDYCKCWIADNRPSVEFHERGKNHKENVASR, the abundance fitness was -0.034 ± 0.068.
With QPKKFCDYCKCWIADNRPSVEFHERGKNHKENVAGR the abundance fitness was 0 ± 0.065.
In the case of QPKKFCDYCKCWIADNRPSVEFHERGKNHKENVALR, the abundance fitness is reported as -0.212 ± 0.086.
For QPKKFCDYCKCWIADNRPSVEFHERGKNHKENVARR, the abundance fitness was 0.004 ± 0.076.
QPKKFCDYCKCWIADNRPSVEFHERGKNHKENVATR gave an abundance fitness of -0.043 ± 0.093.
With QPKKFCDYCKCWIADNRPSVEFHERGKNHKENVAAR the abundance fitness was 0.216 ± 0.093.
For QPKKFCDYCKCWIADNRPSVEFHERGKNHKENVADR, the abundance fitness was -0.057 ± 0.11.
For QPKKFCDYCKCWIADNRPSVEFHERGKNHKENTAKR, the abundance fitness was -0.23 ± 0.1.
Variant QPKKFCDYCKCWIADNRPSVEFHERGKNHKENRAKR has an abundance fitness of -0.149 ± 0.066.
For QPKKFCDYCKCWIADNRPSVEFHERGKNHKENQAKR, the abundance fitness was -0.195 ± 0.12.
